Laboratory results from patent US9902783B2, “Antibodies and pharmaceutical compositions containing same useful for inhibiting activity of metalloproteins” (Yeda Research and Development Co. Ltd., priority 2007, dated 2018).

How the values were obtained:
[1] = cross reactivity, competitive ELISA and immuno affinity assay, vitamin; type: binding
Text: The selectivity of anti CoTCPP and anti Imisdp was further challenged, by testing their cross reactivity with non related zinc dependent enzymes—Carbonic Anhydrase (CA) and brockii alcohol dehydrogenase (TbADH). Similar to active MMPs CA contains a zinc ion that is tetrahedraly coordinated to three histidine residues and a water molecule, TbADH contains a catalytic zinc ion that is tetraheadrally coordinated to four different amino acid residues, histidine, cysteine, aspartate and glutamate. […] Anti CoTCPP mAb was also tested for its cross reactivity with related physiological porphyrins such as the Heme group within Myoglobin and Hemoglobin and vitamin.
Carbonic anhydrase, and alcohol dehydrogenase all have rather buried active sites, similarly, the porphyrin moiety in Myoglobin and Hemoglobin is not exposed. Vitamin B 12 contains metal at the center of planer […] structure yet the axial ligands may interfere with the binding of the mAb.

MMP-2 = MMP-2 (Mus musculus, UniProt P33434); assay: kinetic assay with fluorogenic peptide substrate, MMP-2; type: biochemical, human
MT1 catalytic domain = assay: immuno affinity binding assay, MT1-MMP; details: purified enzyme
Experimental: (§1) MAbs (10 μg) were incubated with anti mouse IgG Agarose beads (Sigma) overnight at 4° C. in PBS. After washing unbound antibody, purified Pro-MMP-2, Pro-MMP-9 MMP-2 catalytic domain, MT1 catalytic domain or TACE (2 μg), were added following 2 h incubation at RT. The beads were collected by centrifugation and washed three times with PBS. The proteins that remained bound to the beads were eluted with SDS sample buffer, fractionated by SDS-PAGE, and detected by staining with Coomassie blue.

TACE = TACE (Homo sapiens, UniProt P78536); assay: immuno affinity binding assay, TACE; details: purified enzyme
Experimental: as §1

[2] = target: T1, MMP-2 catalytic domain (MMP-2cat) (Mus musculus, UniProt P33434); assay: immuno affinity pull down of MMP-2 catalytic domain; type: binding; details: SDS-PAGE
T1 construct: NP_032636.1; made in house; host or cells: BL-21 cells (E. coli)
Experimental: FIGS. 3A-3C are western blot images showing the ability of mouse IgG-Agarose immobilized mAbs to pull down recombinant MMP-2 catalytic domain (MMP-2cat) or Pro-MMP-2 and Pro-MMP-9 from solution. Antibodies used for each experiment are 6C6, 13E11, and 13E15. FIG. 3A—MMP-2cat (2 μg) was incubated with anti-mouse IgG-Agarose (cntl, lane1) or anti CoTCPP, ZnTCPP and Imisdp mAb (10 μg)-anti-mouse IgG-Agarose for 2 hr at 20° C., immunoprecipitates (lane 2, 3, 5) were centrifuged and washed three times, separated on SDS/PAGE gel and visualized by Coomassie-staining. […]
FIGS. 11A-11D are photographs and models illustrating that 6C6 binds only the active conformation of MMP9 and MMP2. […] FIGS. 11B,C: 6C6 mAb immobilized to protein A beads was analyzed for its ability to pull down ProMMP2, ProMMP9, or MMP2 catalytic fragment (lacking the hemopexin and pro domains) from solution. […]
MAbs (10 μg) were incubated with anti mouse IgG Agarose beads (Sigma) overnight at 4° C. in PBS. […] The proteins that remained bound to the beads were eluted with SDS sample buffer, fractionated by SDS-PAGE, and detected by staining with Coomassie blue.

Pro-MMP-9 = Pro-MMP-9 (Homo sapiens, UniProt P14780); type: binding
active MMP-9 = target: T2, active MMP-9 (Mus musculus, UniProt P41245); assay: co-purification of active MMP-9 with mAb from mice ascites fluid (western blot); type: binding; details: co-purified from mice ascites fluid, about 82 KDa band in western blot
T2 construct: corresponding to active MMP9 lacking the pro-domain was identified; from tissue; host or cells: mouse ascites fluid
Experimental: FIGS. 11A-11D are photographs and models illustrating that 6C6 binds only the active conformation of MMP9 and MMP2. FIG. 11A: Detection of active MMP9 that co-purified with 6C6 from mice ascites fluid. MAb (10 μg) purified from mice ascites fluid containing MMP9, was subjected to western blot (WB) analysis using commercial anti MMP9 antibody. Non related IgG mAb that has been purified in the same manner, served as negative control (MAb Control). Human ProMMP9 purified from Hilla transfected cells served as molecular weight marker to discern the active species. Purification was done by affinity chromatography using protein G beads which bind mAb via its constant domain, leaving the antigen binding site free to interact with the antigen. FIGS. 11B,C: 6C6 mAb immobilized to protein A beads was analyzed for its ability to pull down ProMMP2, ProMMP9, or MMP2 catalytic fragment (lacking the hemopexin and pro domains) from solution. […]
Selected hybridomas were subcloned twice by limited dilutions, followed by large-scale production by ascites tumors primed with pristine (2,6,10,14 tetrametylpentadecane) injected BALB/c mice. […] The elution peak was analyzed by SDS-PAGE.
Purified antibodies were separated in 8% SDS-polyacrylamide gel, transferred to NC membranes (Bio-Rad), and subsequently subjected to immunoblot analysis using anti MMP-9 antibody (Sigma). […] Signals were detected using ECL (Pierce).

T2 sequence (P41245 108-730): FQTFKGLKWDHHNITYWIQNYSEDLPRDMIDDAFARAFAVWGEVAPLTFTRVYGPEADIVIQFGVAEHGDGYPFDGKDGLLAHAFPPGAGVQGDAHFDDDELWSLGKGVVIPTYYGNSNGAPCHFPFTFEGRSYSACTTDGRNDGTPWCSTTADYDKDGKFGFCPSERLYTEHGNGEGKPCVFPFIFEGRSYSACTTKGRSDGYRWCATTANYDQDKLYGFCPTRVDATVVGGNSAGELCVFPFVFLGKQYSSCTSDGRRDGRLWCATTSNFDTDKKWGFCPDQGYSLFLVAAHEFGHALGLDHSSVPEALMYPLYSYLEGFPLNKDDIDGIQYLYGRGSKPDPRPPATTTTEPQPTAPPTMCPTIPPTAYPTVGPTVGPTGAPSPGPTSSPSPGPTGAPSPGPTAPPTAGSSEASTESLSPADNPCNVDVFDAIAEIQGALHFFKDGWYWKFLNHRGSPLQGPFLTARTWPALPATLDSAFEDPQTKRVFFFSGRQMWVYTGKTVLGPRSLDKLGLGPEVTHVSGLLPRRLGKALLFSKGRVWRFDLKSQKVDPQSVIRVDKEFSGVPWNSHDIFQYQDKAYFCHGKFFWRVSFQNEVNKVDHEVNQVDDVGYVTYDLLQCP
Chain of MMP-2 (P33434 110-467): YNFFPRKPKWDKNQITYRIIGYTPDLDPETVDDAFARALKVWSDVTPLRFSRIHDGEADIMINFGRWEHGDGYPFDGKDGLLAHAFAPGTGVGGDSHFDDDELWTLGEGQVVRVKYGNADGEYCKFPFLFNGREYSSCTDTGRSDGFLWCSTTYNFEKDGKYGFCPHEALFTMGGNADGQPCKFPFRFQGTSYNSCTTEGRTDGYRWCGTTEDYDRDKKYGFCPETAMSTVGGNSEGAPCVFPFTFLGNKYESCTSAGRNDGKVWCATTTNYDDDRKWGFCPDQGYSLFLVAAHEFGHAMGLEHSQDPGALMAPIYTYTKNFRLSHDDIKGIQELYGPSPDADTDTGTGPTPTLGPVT
T1 sequence (P33434 110-467): as above
Chain of Pro-MMP-9 (P14780 20-707 limits assumed): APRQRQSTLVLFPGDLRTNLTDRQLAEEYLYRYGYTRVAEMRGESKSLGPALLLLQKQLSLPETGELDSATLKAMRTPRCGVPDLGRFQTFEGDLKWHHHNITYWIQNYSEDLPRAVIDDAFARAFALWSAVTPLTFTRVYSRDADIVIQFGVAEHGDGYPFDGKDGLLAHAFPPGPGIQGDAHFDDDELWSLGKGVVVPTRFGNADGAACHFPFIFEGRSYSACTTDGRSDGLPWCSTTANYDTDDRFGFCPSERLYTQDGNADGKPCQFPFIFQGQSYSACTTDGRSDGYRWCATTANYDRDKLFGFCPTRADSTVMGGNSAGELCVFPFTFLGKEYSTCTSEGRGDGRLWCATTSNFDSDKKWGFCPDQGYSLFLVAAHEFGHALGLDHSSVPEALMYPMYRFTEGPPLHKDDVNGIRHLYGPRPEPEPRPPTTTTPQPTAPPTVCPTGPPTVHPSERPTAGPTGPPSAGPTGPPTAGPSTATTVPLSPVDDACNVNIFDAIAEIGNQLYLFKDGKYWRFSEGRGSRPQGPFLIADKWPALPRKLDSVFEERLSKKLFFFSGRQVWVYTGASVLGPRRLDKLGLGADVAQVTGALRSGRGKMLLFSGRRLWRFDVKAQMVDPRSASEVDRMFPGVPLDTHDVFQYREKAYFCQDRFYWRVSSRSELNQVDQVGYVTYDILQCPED
Chain of TACE (P78536 215-824, species assumed): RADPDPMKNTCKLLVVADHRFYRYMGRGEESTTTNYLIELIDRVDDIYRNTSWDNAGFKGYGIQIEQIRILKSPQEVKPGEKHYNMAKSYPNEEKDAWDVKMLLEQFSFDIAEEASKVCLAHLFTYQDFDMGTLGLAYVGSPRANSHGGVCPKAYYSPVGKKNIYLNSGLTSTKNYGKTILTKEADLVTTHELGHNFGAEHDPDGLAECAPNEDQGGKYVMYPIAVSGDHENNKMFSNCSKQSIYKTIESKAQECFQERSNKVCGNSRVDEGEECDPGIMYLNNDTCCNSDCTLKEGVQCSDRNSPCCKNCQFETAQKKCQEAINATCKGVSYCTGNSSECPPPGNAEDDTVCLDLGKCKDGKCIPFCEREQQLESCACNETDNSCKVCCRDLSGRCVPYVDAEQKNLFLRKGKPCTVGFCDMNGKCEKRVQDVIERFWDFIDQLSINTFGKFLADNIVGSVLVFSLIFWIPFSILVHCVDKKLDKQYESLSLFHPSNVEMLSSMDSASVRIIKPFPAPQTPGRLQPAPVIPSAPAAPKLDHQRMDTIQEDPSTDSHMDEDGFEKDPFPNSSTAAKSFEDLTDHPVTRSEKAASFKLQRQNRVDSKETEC

B1: 13E11: monoclonal antibody, IgG2b, raised against the hapten CoTCPP (antibody, V domains shown)
VH: EGGGLVQPGGSRKLSCAASGFTFTSFGMHWVRQAPEKGLEWVAYISSGNEIIYYADTVKGRFTISRDNPKNTLFLQMTSLRSEDTAMYYCARNYYRYGFYVMDYWGQG
VL: EIVVTQSPAILSASPGEKVTMTCRASSSVSYMHWYQQKPGSSPKPWIYATSNELASGVPARFSGSGSGTSYSLTISRVEAEDAATYYCQQWISNPLTFGAG
modifications: 13E11 mAb heavy chain; 13E11 mAb light chain
notes: monoclonal antibody, IgG2b, raised against the hapten CoTCPP
cross reactivity with vitamin [1]: No cross was detected
mode of inhibition of MMP-2 (MMP-2): competitive inhibitor
binding to MT1-MMP (MT1 catalytic domain): no binding was detected
binding to TACE (TACE): no binding was detected

B2: 6C6: monoclonal antibody, IgG2a, raised against the hapten Imisdp; MMP-2 and MMP-9 inhibitory; SEQ ID NO: 1 (protein)
chain: CMETTQTPLSLPVSLGDQASISCRSSQSIVHSNGNTFLEWYLQKPGQSPKLLIYKVSNCRFSGVPDRFSGSGSGTDFTLKISRVEAEDLGVYYCFQASHVPPTFGGG
modifications: 6c6 mAb light chain
binding to MMP-2 catalytic domain [2]: formation of a specific complex
binding to Pro-MMP-9 (Pro-MMP-9): did not bind
in vivo complex with active MMP-9 (active MMP-9): formed a specific in vivo complex
